The source of these data is paper PMC8034652 (Nucleic Acids Research, 2021).

Broadly, the Kd is the concentration at which binding is half-saturated. Higher therefore signals a looser complex. Broadly, the stoichiometry N is a count of units in the complex or per binding partner.

One data set addresses FOXO1-DBD Q227R (human, UniProt Q12778 151-266, Q227R). In words: EMSA. A general note: A gel shift assay detects complexes by their altered migration in electrophoresis.
The next data set deals with FOXO1-DBD R225E (human, UniProt Q12778 151-266, R225E). The experiment in a line: EMSA.
Data set [1] addresses T1, FOXO1-DBD (human, UniProt Q12778 151-266). In words: ITC. (Isothermal titration calorimetry measures the heat released or taken up as one component is titrated into another.)
The data set “[…]” deals with the molecule itself. The experiment in a line: […].
The data set “crystal structure” deals with the molecule itself. In words: crystal structure.
Data set [2] concerns the target T2, FOXC2-DBD (UniProt Q99958 72-171).
T2 sequence: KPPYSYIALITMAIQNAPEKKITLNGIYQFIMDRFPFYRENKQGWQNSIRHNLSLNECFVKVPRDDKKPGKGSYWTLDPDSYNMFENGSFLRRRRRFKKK
The experiment in a line: crystal structure.

Data set [3] addresses T1, FOXO1-DBD. In words: crystal structure.
The next data set has as its target FOXO3-DBD (UniProt O43524 158-253). In words: EMSA.
Another data set has as its target T3, FOXI1-DBD (UniProt Q12951 119-223).
T3 sequence: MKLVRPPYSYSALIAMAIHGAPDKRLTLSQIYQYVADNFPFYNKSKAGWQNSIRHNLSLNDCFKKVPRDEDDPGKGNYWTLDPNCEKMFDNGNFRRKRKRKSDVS
The experiment in a line: EMSA.

Data set [4] deals with T2, FOXC2-DBD. The experiment in a line: EMSA.
Another data set addresses T4, FOXM1-DBD (UniProt Q08050 222-360).
T4 sequence: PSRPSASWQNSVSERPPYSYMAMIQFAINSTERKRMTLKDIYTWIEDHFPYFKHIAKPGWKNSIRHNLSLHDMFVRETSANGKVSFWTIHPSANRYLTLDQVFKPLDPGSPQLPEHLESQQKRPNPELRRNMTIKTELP
The experiment in a line: EMSA.

B1: FKH_26 (dsDNA)
DNA 1: GACGAAGTAAACACGGCAGGTTCGTC
DNA 2: GACGAACCTGGCGTGTTTACTTCGTC
Turning to B1, the binding result in the data set with FOXO1-DBD Q227R and in the data set with FOXO1-DBD R225E was “binds” in each case. Also, binding in the data set with FOXO1-DBD [1] was put at a Kd of 1380 nM.

B2: FOXO3-DBD (residues 158-253) (domain or fragment)
chain: GNLSYADLITRAIESSPDKRLTLSQIYEWMVRCVPYFKDKGDSNSSAGWKNSIRHNLSLHSRFMRVQNEGTGKSSWWIINPDGGKSGKAPRRRAVS
On to B2, for which the binding result in […] is recorded as “binds”.

B3: human FOXO1-DBD (residues 151-266) (domain or fragment)
chain: KSSSSRRNAWGNLSYADLITKAIESSAEKRLTLSQIYEWMVKSVPYFKDKGDSNSSAGWKNSIRHNLSLHSKFIRVQNEGTGKSSWWMLNPEGGKSGKSPRRRAASMDNNSKFAKS
For B3, the “stoichiometry N” value in “crystal structure” was 2.

B4: DIV2 20-bp crystal DNA (dsDNA)
DNA 1: ACCGTAAACATGTTTACGGT
DNA 2: ACCGTAAACATGTTTACGGT
With B4, the binding result with FOXC2-DBD [2] and with FOXO1-DBD [3] was “binds” each time.

B5: FOXI1-DBD (residues 119-223) (domain or fragment)
chain: MKLVRPPYSYSALIAMAIHGAPDKRLTLSQIYQYVADNFPFYNKSKAGWQNSIRHNLSLNDCFKKVPRDEDDPGKGNYWTLDPNCEKMFDNGNFRRKRKRKSDVS
As for B5, in data set […], the binding result is given as “binds”.

B6: DIV2_26 (dsDNA)
DNA 1: GACGAAGTAAACATGTTTACTTCGTC
DNA 2: GACGAAGTAAACATGTTTACTTCGTC
Turning to B6, the binding result with FOXO3-DBD, with FOXI1-DBD, in the data set with FOXC2-DBD [4] and with FOXM1-DBD was “binds” in each case. This molecule had a dissociation constant Kd with FOXO1-DBD [1] of 150 nM.
